Experiment: purified protein yield per well (BCA); higher = higher soluble expression
In short: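 Candidate enzymes were produced in E. coli C41(DE3) grown in 2 mL autoinduction cultures containing 100 µg/mL kanamycin, first at 37 °C for 2 h and then at 18 °C for 40 h. After cell lysis, protein was captured on Ni-charged magnetic beads and freed by SUMO protease cleavage on an OT-2 robot. Purified protein yield per well was read with the Pierce Rapid Gold BCA kit. Values under 25 ug (0.1 mg/mL) fall below the detection threshold.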

With “CESRRGPDPTRVSVESTAGPFAIATTTVSSGNGFGGGTIYYPTSTAEGRFGGVAIAPGFTKTQSSIAWYGPRLASQGFVVFTIDTNSGLDFPASRGDQLLAALDFLTSSSSVKSRVDANRLAVMGWSMGGGGALEAAKDRPALKAAIPLAGWNTTTEWSSVTVPTLVVACENDSTAPVASHSRPFYDSLTSAQERAFVEMAGAPHGCVTSPTTAVARWTISWLKRFVDGDTRYTQFLCPPPADSTVSTQLTSCPM [TEP177]” the “purified protein yield per well” value was less than 25 µg.
With “CGDRDAGDPAPTESSLTAPLGPEKYRTEVVPRAYVEAFGGGTIYYPAGRPPGERLGAVTIVPGSRGYQSGMAWYGPLLASRGFIVFTIDTLHLKDQPAKRSLELEAALTYLATRSAVASHVDAERLAVMGHSLGGGGTLDLAATRPNLKAAIPLMPYDKAKDFSNVRVPTLVVAAQHDKIAPVGKHAEVFYRSIPASQPKAYLEIAGATHSFPKRRDATLAKYVIAWLKRYVDGDKRYDRFLCPGPQNDPHVARYASDCTPR [DP095]” the “purified protein yield per well” value was less than 25 µg.
With “CGLCKAQTCDTLTLDSIYDPGAYSFATLLESDGIRNGPDYAGATIYYPTNGIPPYPAIAICPGHSTFEYTIQAWGPFYASHGIVTITIGTNSIYDYPDARKNAILDALETVRQENVRSGSPLFGYLDLSRLAVSGWSMGGGGAQLAAAADTTIKAVVGLCPWLESWRTAADLNHPVPTLILSGQIDAIAPPYYHADVHYGYIP [TEP133]” the “purified protein yield per well” value was less than 25 µg.
For “CGTTTSTLTTPAVTPQTLSGAATNPYERGPAPTTALLEAARGPYATASTTVPRSSVSDFGGATIYYPTSTADGTFGGVAISPGYTGTQASVAWLGPRLASHGFVVIVIDTLSRYDYPSSRGDQLRAALRYLTTSSAVRTRVDATRLAVMGHSMGGGGALEAAKDNPALKAAIPLTPWNTDKSWPELTTPTLIFGAQNDSVAPVSSHAIPFYTSLASTLPKAYLELRGASHGAPTSTNTTIAKYAVAWLKRFEDADRRYDPFLCPTPAVSTLLSDARSTCPFN [DP069]”, the “purified protein yield per well” value was less than 25 µg.
For “CSEEPHKAGGPWAGPYEVVTQQVSADDADGGFGDGTVRYPDDGSRDYGVIAASPGLGADESTVAPYGELLASHGFVVITIDTKTPEDSPAQRGRQLLRALDYATERSDAADRADPRRLGVLGHSMGGGGALYAAARNPHIRAAVPLTPYATRRDWHRVEAPTLVVGGSDDEVAPVSEYADAFYEGLSGAREKAYLELKGDHFVATPPDGLVSRQVVAWFGHFLAGAPGSPCPLPSGDGVTESRDTCPFGTRGR [TEP179]”, the “purified protein yield per well” value was 25.7 µg.
For “CSGSTPTAPAAPAPKATAAPNDRPAPTAQVPRSFERGPAPSEKSVTAKRGPFAFEKIEVPAGSGPGFNKGTIYAPTDTSRGTFGAVVMSPGFASPHTWIDWYGPRLASQGFVVMMLETNTLFDVPLLRGRQIVAALDYLTARSVVRGRVDPSRTAVMGHSMGGGGTLEAARQRPGLKAAVPLAPWNPDYNWGGVVVPTMIIGAQRDVIAPTALMSEAYYNRLTAAPEKAYLVLRGAGHLTFMSPNATIAKYVISWMKRFVDNDSRYDRFLCPPPKPRGLLTVYRGTCPTG [DP037]”, the “purified protein yield per well” value was less than 25 µg.
With “CTWRGPNPPPATLDAPMGPFTTTSSVVTTSPGFGDGTMYYPDTEPGPFGVVAVAPGWLASQNSLDTLGNRIASHGFVVITIDVNRPRSDGPQSRADQLLAALDQVANEAAVAGIADNTRQAVMGHSMGGGGALYASIDRPALKASIPLAPWARGADFSAVTVPTMIIGCEDDTVAPVGSHAIAFYDAIANTVPKAYAEIADASHSCVNDFNTDPLETAEVASSAVSFLKRFVDNDSRYTPFLCPIPELDPPLSDRRATCPYN [TEP148]” the “purified protein yield per well” value was less than 25 µg.
In the case of “CVFPPAPPPPGSGYTITTVAAGNGFGGGTIYLPEGVTGRRGAVAVVPGFTGTQSTVAWYGPLLAKEGYVVFTIDTNSGWDSPQARGTQLLAALDYLTTQSSAASRVDPARLAVMGHSMGGGGSLEAAKARPSLKAAIPLAGWNSVTNFSTVTVPTLVVA [TEP070]”, the “purified protein yield per well” value is reported as less than 25 µg.
For “DANPYQRGPAPTESSVAAEKGPFAVAQTDVPAGSGQGFNDGTIYYPTDTSQGTFGAVVVMPGFVSPQEWIRWYGPLLASQGFVVMTLDSNTLLDFPGARGDQILAALDYLTTKSKVVDRIDTGRLAVMGWSMGGGGTLEAAAERPSLKADIALAPWDLDNVAAKVKVPSMIIADDTDILAPTGVFAKPFYDAMSTAPDKAFFELKSANHFTFTSYNKTIAKYAVSWLKRFVDDDTRYDQFLCPKPAPSNEITQFEETCPLG [TEP059]”, the “purified protein yield per well” value was less than 25 µg.

From the supplement of paper PMC12455559
